Experimental data: US20220041658A1 (PROTAGONIST THERAPEUTICS, published 2022)
Positions of bridges follow the written chain, without caps; N, C: chain ends. Non-standard residues stand in square brackets, D forms with d. Trp(7-OMe) = COc1cccc2c(C[C@H](N)C(=O)O)c[nH]c12; Trp(7-Me) = Cc1cccc2c(C[C@H](N)C(=O)O)c[nH]c12; 2Nal = N[C@@H](Cc1ccc2ccccc2c1)C(=O)O; AEF = NCCOc1ccc(C[C@H](N)C(=O)O)cc1; Cit = NC(=O)NCCC[C@H](N)C(=O)O; αMeL = CC(C)C[C@](C)(N)C(=O)O; Pen = CC(C)(S)[C@H](N)C(=O)O; αMeK = C[C@](N)(CCCCN)C(=O)O; βAla = NCCC(=O)O

T1: interleukin-23 receptor (IL-23R) (human, UniProt Q5VWK5 24-629)
T1 sequence (looked up): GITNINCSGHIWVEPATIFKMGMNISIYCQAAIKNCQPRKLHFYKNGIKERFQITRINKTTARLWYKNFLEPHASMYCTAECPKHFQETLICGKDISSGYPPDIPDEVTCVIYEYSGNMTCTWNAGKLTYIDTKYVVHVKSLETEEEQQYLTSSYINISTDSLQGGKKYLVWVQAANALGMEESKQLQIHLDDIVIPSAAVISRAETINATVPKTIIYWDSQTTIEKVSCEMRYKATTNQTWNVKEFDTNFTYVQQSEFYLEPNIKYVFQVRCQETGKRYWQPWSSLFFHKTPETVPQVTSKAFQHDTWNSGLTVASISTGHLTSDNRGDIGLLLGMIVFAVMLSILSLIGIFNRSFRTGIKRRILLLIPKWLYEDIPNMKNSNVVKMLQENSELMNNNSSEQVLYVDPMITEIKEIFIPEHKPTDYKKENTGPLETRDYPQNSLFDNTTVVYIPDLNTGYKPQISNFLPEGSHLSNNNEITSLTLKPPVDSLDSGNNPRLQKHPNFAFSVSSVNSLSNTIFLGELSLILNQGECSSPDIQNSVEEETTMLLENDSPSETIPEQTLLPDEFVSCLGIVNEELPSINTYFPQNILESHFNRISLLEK

B1: Peptide of SEQ ID NO: 202 (peptide)
peptide: XNTXQXXXXKNX
modifications: Ac-[Pen]-NT-[W(7-Me)]-Q-[Pen]-Phe[4-(2-aminoethoxy)]-[2-Nal]-[a-MeLys]-[Lys(Ac)]-N-[bA]-NH2; Pen-Pen disulfide
B2: Peptide of SEQ ID NO: 203 (peptide)
peptide: RXQTXQCXXXENX
modifications: Ac-[(D)Arg]-Abu-Q-T-[W(7-Me)]-Q-C-Phe[4-(2-aminoethoxy)]-[2-Nal]-[THP]-E-N-[bA]-NH2; Abu-Cys thioether
B3: Peptide of SEQ ID NO: 205 (peptide)
peptide: XNTXQXXXXKGX
modifications: Ac-[Pen]-NT-[W(7-Me)]-Q-[Pen]-Phe[4-(2-aminoethoxy)]-[2-Nal]-[a-MeLeu]-[Lys(Ac)]-G-[bA]-NH2; Pen-Pen disulfide
B4: Peptide of SEQ ID NO: 206 (peptide)
peptide: XNTXQXXXXKXX
modifications: Ac-[Pen]-NT-[W(7-Me)]-Q-[Pen]-Phe[4-(2-aminoethoxy)]-[2-Nal]-[a-MeLeu]-[Lys(Ac)]-[Cit]-[bA]-NH2; Pen-Pen disulfide
B5: Peptide of SEQ ID NO: 215 (peptide)
peptide: XNTXQXXXXKHX
modifications: Ac-[Pen]-NT-[W(7-Me)]-Q-[Pen]-Phe[4-(2-aminoethoxy)]-[2-Nal]-[a-MeLeu]-[Lys(Ac)]-[(D)His]-[bA]-NH2; Pen-Pen disulfide
B6: Peptide of SEQ ID NO: 207 (peptide)
peptide: XNTXQXXXXKAX
modifications: Ac-[Pen]-NT-[W(7-Me)]-Q-[Pen]-Phe[4-(2-aminoethoxy)]-[2-Nal]-[a-MeLeu]-[Lys(Ac)]-A-[bA]-NH2; Pen-Pen disulfide
B7: Peptide of SEQ ID NO: 208 (peptide)
peptide: XNTXQXXXXKLX
modifications: Ac-[Pen]-NT-[W(7-Me)]-Q-[Pen]-Phe[4-(2-aminoethoxy)]-[2-Nal]-[a-MeLeu]-[Lys(Ac)]-L-[bA]-NH2; Pen-Pen disulfide
B8: Peptide of SEQ ID NO: 209 (peptide)
peptide: XNTXQXXXXKAX
modifications: Ac-[Pen]-NT-[W(7-Me)]-Q-[Pen]-Phe[4-(2-aminoethoxy)]-[2-Nal]-[a-MeLeu]-[Lys(Ac)]-[(D)Ala]-[bA]-NH2; Pen-Pen disulfide
B9: Peptide of SEQ ID NO: 216 (peptide)
peptide: XNTXQXXXXKIX
modifications: Ac-[Pen]-NT-[W(7-Me)]-Q-[Pen]-Phe[4-(2-aminoethoxy)]-[2-Nal]-[a-MeLeu]-[Lys(Ac)]-I-[bA]-NH2; Pen-Pen disulfide
B10: Peptide of SEQ ID NO: 217 (peptide)
peptide: XNTXQXXXXKTX
modifications: Ac-[Pen]-NT-[W(7-Me)]-Q-[Pen]-Phe[4-(2-aminoethoxy)]-[2-Nal]-[a-MeLeu]-[Lys(Ac)]-T-[bA]-NH2; Pen-Pen disulfide
B11: Peptide of SEQ ID NO: 218 (peptide)
peptide: XNTXQXXXXKTX
modifications: Ac-[Pen]-NT-[W(7-Me)]-Q-[Pen]-Phe[4-(2-aminoethoxy)]-[2-Nal]-[a-MeLeu]-[Lys(Ac)]-[(D)Thr]-[bA]-NH2; Pen-Pen disulfide
B12: Peptide of SEQ ID NO: 221 (peptide)
peptide: XNTXQXXXXKSX
modifications: Ac-[Pen]-NT-[W(7-Me)]-Q-[Pen]-Phe[4-(2-aminoethoxy)]-[2-Nal]-[a-MeLeu]-[Lys(Ac)]-S-[bA]-NH2; Pen-Pen disulfide
B13: Peptide of SEQ ID NO: 223 (peptide)
peptide: XNTXQXXXXKXX
modifications: Ac-[Pen]-NT-[W(7-Me)]-Q-[Pen]-Phe[4-(2-aminoethoxy)]-[2-Nal]-[a-MeLeu]-[Lys(Ac)]-[N-MeAla]-[bA]-NH2; Pen-Pen disulfide
B14: Peptide of SEQ ID NO: 224 (peptide)
peptide: XNTXQXXXXKXX
modifications: Ac-[Pen]-NT-[W(7-Me)]-Q-[Pen]-Phe[4-(2-aminoethoxy)]-[2-Nal]-[a-MeLeu]-[Lys(Ac)]-[Sarc]-[bA]-NH2; Pen-Pen disulfide
B15: Peptide of SEQ ID NO: 225 (peptide)
peptide: XNTXQXXXXKXX
modifications: Ac-[Pen]-NT-[W(7-Me)]-Q-[Pen]-Phe[4-(2-aminoethoxy)]-[2-Nal]-[a-MeLeu]-[Lys(Ac)]-[a-MeLeu]-[bA]-NH2; Pen-Pen disulfide
B16: Peptide of SEQ ID NO: 226 (peptide)
peptide: XNTXQXXXXKXX
modifications: Ac-[Pen]-NT-[W(7-Me)]-Q-[Pen]-Phe[4-(2-aminoethoxy)]-[2-Nal]-[a-MeLeu]-[Lys(Ac)]-[bA]-[bA]-NH2; Pen-Pen disulfide
B17: Peptide of SEQ ID NO: 296 (peptide)
peptide: XNTXQXXXXKNK
modifications: Ac-[Pen]-N-T-[W(5-CN)]-Q-[Pen]-Phe[4-(2-aminoethoxy)]-[2-Nal]-[a-MeLys]-[Lys(Ac)]-N-[(D)Lys]-NH2; Pen-Pen disulfide
B18: Peptide of SEQ ID NO: 297 (peptide)
peptide: XNTXQXXXXKNK
modifications: Ac-[Pen]-N-T-[W(7-OMe)]-Q-[Pen]-Phe[4-(2-aminoethoxy)]-[2-Nal]-[a-MeLys]-[Lys(Ac)]-N-[(D)Lys]-NH2; Pen-Pen disulfide
B19: Peptide of SEQ ID NO: 299 (peptide)
peptide: XNTXKXXXXKNK
modifications: Ac-[Pen]-N-T-[W(7-OMe)]-[Lys(Ac)]-[Pen]-Phe[4-(2-aminoethoxy)]-[2-Nal]-[a-MeLys]-[Lys(Ac)]-N-[(D)Lys]-NH2; Pen-Pen disulfide
B20: Peptide of SEQ ID NO: 315 (peptide)
peptide: XNTXXXXXXKNL
modifications: Ac-[Pen]-N-T-[W(7-Me)]-[Lys(IVA)]-[Pen]-Phe[4-(2-aminoethoxy)]-[2-Nal]-[a-MeLys]-[Lys(Ac)]-N-[(D)Leu]-NH2; Pen-Pen disulfide
B21: Peptide of SEQ ID NO: 316 (peptide)
peptide: XNTXXXXXXKNL
modifications: not fully specified; Ac-[Pen]-N-T-[W(7-Me)]-[Lys(cyclohexyl)]-[Pen]-Phe[4-(2-aminoethoxy)]-[2-Nal]-[a-MeLys]-[Lys(Ac)]-N-[(D)Leu]-NH2; Pen-Pen disulfide
B22: Peptide of SEQ ID NO: 317 (peptide)
peptide: XNTXXXXXXKNL
modifications: Ac-[Pen]-N-T-[W(7-Me)]-[Lys(octanoic)]-[Pen]-Phe[4-(2-aminoethoxy)]-[2-Nal]-[a-MeLys]-[Lys(Ac)]-N-[(D)Leu]-NH2; Pen-Pen disulfide

Key:
[1] = target: T1, interleukin-23 receptor (IL-23R); experiment: cell-based or functional assay
[2] = target: T1, interleukin-23 receptor (IL-23R); experiment: cell-based or functional assay; remark: listed apart in the source

Row | Binder | pStat3 HTRF IC50 [1] [nM] | NK Cell Assay IC50 [2] [nM]
1 | B1 | 1.1 | 3.49
2 | B2 | 1.84 | 2.3
3 | B3 | 4.46 | 16.6
4 | B4 | 12 | 21.4
5 | B5 | 4.94 | 20
6 | B6 | 1.46 | 8.4
7 | B7 | 5.39 | 7.8
8 | B8 | 9.84 | 30.1
9 | B9 | 13.5 | > 500
10 | B10 | 1.61 | 13.3
11 | B11 | 11 | 50.2
12 | B12 | 1.27 | 5.5
13 | B13 | 134 | 8.3
14 | B14 | 124 | > 500
15 | B15 | 56.7 | 114
16 | B16 | 25.7 | 9.55
17 | Ac-[Pen]NT[Trp(7-Me)][Cit][Pen][AEF][2Nal][αMeL]K(Ac)N[βAla]-NH2 (disulfide 1-6) [Peptide of SEQ ID NO: 227] | 0.702 | 2.95
18 | Ac-[Pen]NT[Trp(7-Me)]K(Ac)[Pen][His_Bzl][2Nal][αMeK]K(Ac)N[dL]-NH2 (disulfide 1-6 (inferred)) [Peptide of SEQ ID NO: 293] | 224 | 
19 | B17 | 6.29 | 
20 | B18 | 1.04 | 
21 | B19 | 2.86 | 
22 | Ac-[Pen]NT[Trp(7-OMe)][Cit][Pen][AEF][2Nal][αMeK]K(Ac)N[dK]-NH2 (disulfide 1-6 (inferred)) [Peptide of SEQ ID NO: 300] | > 1000 | 
23 | B20 | 1.41 | 
24 | B21 | 5.6 | 
25 | B22 | 13 | 
